In the experiment the target is full-length AgrC-I Q305A in lipid nanodiscs (S. aureus). Kind of experiment: fluorescence polarisation. A general note: Polarisation of emitted light reports the rotation of a fluorescent probe.

What is called Kd is the free concentration of one partner at which half of the binding sites on the other are occupied at equilibrium, for simple one-to-one binding. A higher Kd goes with weaker binding. In turn, AIP-I (peptide) came in with a Kd of 56 nM.
AIP-II (peptide): the Kd is 151 nM.
